Laboratory results as given in PMC11871066, “Structure-based discovery of hydrocarbon-stapled paxillin peptides that block FAK scaffolding in cancer” (Nature Communications, 2025).
Bridge positions count the residues as written; N and C are the ends. Square brackets hold non-standard residues; d marks the D form. R8 = C=CCCCCCC[C@@](C)(N)C(=O)O; R5 = C=CCCC[C@@](C)(N)C(=O)O; S5 = C=CCCC[C@](C)(N)C(=O)O

B1: stapled peptide 2010 (peptide)
chain: Ac-NL[R8]ALDALL[S5]ELN-NH2
modifications: staple 3-10
B2: stapled peptide 1933 (peptide)
chain: Ac-NL[R8]EWDRLL[S5]EWN-NH2
modifications: staple 3-10
B3: stapled peptide 1913 (peptide)
chain: Ac-DL[R8]ELDRLL[S5]ELD-NH2
modifications: staple 3-10
B4: stapled peptide 2007 (peptide)
chain: Ac-NL[R8]ELDRLW[S5]ELN-NH2
modifications: staple 3-10
B5: stapled peptide 1921 (peptide)
chain: Ac-NLSELDRL[R5]LE[S5]N-NH2
modifications: staple 9-12
B6: stapled peptide 2009 (peptide)
chain: Ac-NL[R8]ALDRLL[S5]ELN-NH2
modifications: staple 3-10
B7: stapled peptide 1905 (peptide)
chain: Ac-NLS[R8]LDRLLL[S5]LN-NH2
modifications: staple 4-11
B8: truncated stapled peptide 2011 (peptide)
chain: Ac-[R8]ELDRLL[S5]-NH2
modifications: staple 1-8
B9: stapled peptide 1914 (peptide)
chain: Ac-NLSE[R8]DRLLLE[S5]N-NH2
modifications: staple 5-12
B10: stapled peptide 2015 (peptide)
chain: Ac-NLSELDR[S5]LLE[S5]N-NH2
modifications: staple 8-12
B11: stapled peptide 1919 (peptide)
chain: Ac-NLSE[S5]DRL[S5]LELN-NH2
modifications: staple 5-9
B12: stapled peptide 1920 (lengthened 1907) (peptide)
chain: Ac-SLGSNL[R8]ELDRLL[S5]ELNAVQH-NH2
modifications: staple 7-14
SMILES: CC(=O)N[C@@H](CO)C(=O)N[C@@H](CC(C)C)C(=O)NCC(=O)N[C@@H](CO)C(=O)N[C@@H](CC(N)=O)C(=O)N[C@@H](CC(C)C)C(=O)N[C@]1(C)CCCCCCC=CCCC[C@@](C)(C(=O)N[C@@H](CCC(=O)O)C(=O)N[C@@H](CC(C)C)C(=O)N[C@@H](CC(N)=O)C(=O)N[C@@H](C)C(=O)N[C@H](C(=O)N[C@@H](CCC(N)=O)C(=O)N[C@@H](Cc2c[nH]cn2)C(N)=O)C(C)C)NC(=O)[C@H](CC(C)C)NC(=O)[C@H](CC(C)C)NC(=O)[C@H](CCCNC(=N)N)NC(=O)[C@H](CC(=O)O)NC(=O)[C@H](CC(C)C)NC(=O)[C@H](CCC(=O)O)NC1=O
B13: stapled peptide 2017 (peptide)
chain: Ac-N[R8]SELDRL[S5]LELN-NH2
modifications: staple 2-9
B14: stapled peptide 1910 (peptide)
chain: Ac-NL[R8]QLDRLL[S5]QLN-NH2
modifications: staple 3-10

The binders below were run against T1, recombinant FAK FAT protein (fluorescence polarisation assay) (human) (assay: fluorescence polarisation; competition: FAT 25 µM, TAMRA-LD2 L10D probe 0.1 µM, peptide titrated from 1.25 mM, 3 h; 20 mM Tris-Cl pH 8.0, 200 mM NaCl, 0.05% β-mercaptoethanol, 0.1% Triton-X 100, 5% glycerol; Ki calculated from IC50). Details: both partners purified.
T1 construct: focal adhesion kinase (FAK), focal adhesion targeting (FAT) domain
For B1, the Ki was 68.5 µM. B2 showed a Ki of 281 µM. In the case of B3, the Ki is reported as 21.8 µM. Work on B4 yielded a Ki of 190 µM. B5 showed a Ki of 492 µM. Work on B6 yielded a Ki of 26.7 µM. With B7 the Ki was > 1250 µM. In the case of B8, the Ki is reported as > 333 µM. In the case of B9, the Ki is reported as > 1250 µM. Work on B10 yielded a Ki of 114 µM. B11 was tested, and the Ki was 38.6 µM. B12 showed a Ki of 25 µM. B13 was tested, and the Ki was 80.6 µM. B14 was tested, and the Ki was 46.8 µM.

The binders below were run against T2, biotinylated AviTag FAK FAT protein (human, biotin) (assay: SPR; biotinylated AviTag FAT immobilised on a streptavidin (SADH) biosensor, ForteBio Pioneer FE, OneStep gradient injection at 150 µl/min; 100 mM Tris-Cl pH 8.0, 200 mM NaCl, 0.05% Tween-20; peptides 200 µM to 97 nM; KD from kinetic data, one-site model). Details: both partners purified.
T2 construct: focal adhesion kinase (FAK), focal adhesion targeting (FAT) domain; captured on a streptavidin biosensor; also called focal adhesion targeting (FAT) domain
For B1, the Kd was 12.6 µM. B2 showed a Kd of 155 µM. For B3, the Kd was 13.7 µM. B4 showed a Kd of 60.6 µM. For B5, the Kd was > 200 µM. B6 showed a Kd of 3.4 µM. B7 was tested, and the Kd was 146 µM. In the case of B8, the Kd is reported as > 200 µM. B9 showed a Kd of 120 µM. With B10 the Kd was 30.6 µM. B11 showed a Kd of 80.6 µM. B13 showed a Kd of 27.9 µM. For B14, the Kd was 22.6 µM.
